Biological target: T1, LexA (Bacillus subtilis 3610) (UniProt P31080)
T1 sequence: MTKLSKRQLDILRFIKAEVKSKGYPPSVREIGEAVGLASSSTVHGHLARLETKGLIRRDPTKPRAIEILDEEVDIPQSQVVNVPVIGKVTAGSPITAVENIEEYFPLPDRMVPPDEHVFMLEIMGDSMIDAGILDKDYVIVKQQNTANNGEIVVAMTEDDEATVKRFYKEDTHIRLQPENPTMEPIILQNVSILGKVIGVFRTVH
Test: EMSA
Settings: EMSA: 4 nM 32P probe, LexA 1-500 nM, binding buffer as printed (likely 5x stock): 100 mM HEPES pH 7.5, 100 mM Tris-HCl, 50% glycerol, 500 mM NaCl, 10 mM EDTA …

Sequence | binding | binding signal (fold lower affinity)
CCTGACGATCACTCATTCTATTTTTTCCTCCTTTATGTTACCACTACATATACTATACCCTGTTTGAAGGGATTTGCCAAGAAAAAAGCGAACGCATATTCGGATTTTTTCTTGGCGTGATTCCTATCAAAATATCATAATGTATCAGAGAAATCATGTTTTCTTAGGAGGATAATGTGCTG (double strand) [PrecA] | binds | –
AGGAGGGATCCTCTATATTGCTATTTCATGTTGGTGGATACAAGTAAAACCAAAATTTCCATATCCATCAGACTTAATGATTTTATCTAGAGAAATAGAAACGTAAACGAAAAAAATATTATTTTTTTAACTTTTTGTTTGAGCCTTTTTACAGATTGGAAGTCTTCAGAATAGGTCTTTTTTGGTAGTACTTACAATAATTATTATATTACATAAGTACTAGATCGTACACGAATTCCTCCT (double strand) [PsigNDN] | – | 500

Source: article PMC6751061
